What was measured:
HeLa Kyoto [1] = assay: solubility change mitosis vs G1/S (difference of NP-40 vs SDS log2 ratios) (log2 ratio difference); higher = more soluble in mitosis
HeLa Kyoto [2] = assay: thermal stability score vs G1/S (z-score of summed log2 fold changes over temperatures); higher = more thermally stable than in G1/S
HeLa Kyoto [3] = assay: solubility in G1/S (NP-40 vs SDS abundance) (log2 ratio); higher = more soluble; details: cell cycle stage: G1/S
HeLa Kyoto [4] = assay: melting temperature (median over replicates), in situ; higher = more thermally stable
[5] = cell cycle stage: early G1 (4.5 h after nocodazole release)
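Wherever melting temperature (median over replicates), in situ is given: HeLa Kyoto cells synchronized by double thymidine or nocodazole block, proteins quantified by TMT10plex mass spectrometry, three independent biological replicates.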
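Wherever solubility change mitosis vs G1/S (difference of NP-40 vs SDS log2 ratios) is given: synchronized HeLa Kyoto cells (double thymidine block for G1/S, nocodazole release for mitosis), protein amounts in NP-40 versus SDS lysates quantified by mass spectrometry, three biological replicates.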
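Wherever solubility in G1/S (NP-40 vs SDS abundance) is given: HeLa Kyoto cells arrested at G1/S by double thymidine block, proteins quantified by TMT10plex mass spectrometry in mild NP-40 versus SDS extracts, three biological replicates.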
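Wherever thermal stability score vs G1/S (z-score of summed log2 fold changes over temperatures) is given: synchronized HeLa Kyoto cells, proteins quantified by TMT10plex mass spectrometry, three biological replicates, mitosis taken 0.5 h after nocodazole release, G1/S directly after double thymidine block.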

Row | Substance | solubility change mitosis (log2) (HeLa Kyoto [1]) | thermal stability score (HeLa Kyoto [2]; [5]) | thermal stability score (HeLa Kyoto [2]; cell cycle stage: mitosis) | solubility in G1/S (log2) (HeLa Kyoto [3]) | melting temperature (HeLa Kyoto [4]; cell cycle stage: G1/S) | melting temperature (HeLa Kyoto [4]; cell cycle stage: mitosis)
1 | MSDEREVAEAATGEDASSPPPKTEAASDPQHPAASEGAAAAAASPPLLRCLVLTGFGGYDKVKLQSRPAAPPAPGPGQLTLRLRACGLNFADLMARQGLYDRLPPLPVTPGMEGAGVVIAVGEGVSDRKAGDRVMVLNRSGMWQEEVTVPSVQTFLIPEAMTFEEAAALLVNYITAYMVLFDFGNLQPGHSVLVHMAAGGVGMAAVQLCRTVENVTVFGTASASKHEALKENGVTHPIDYHTTDYVDEIKKISPKGVDIVMDPLGGSDTAKGYNLLKPMGKVVTYGMANLLTGPKRNLMALARTWWNQFSVTALQLLQANRAVCGFHLGYLDGEVELVSGVVARLLALYNQGHIKPHIDSVWPFEKVADAMKQMQEKKNVGKVLLVPGPEKEN [VAT1] | -0.125 | -0.577 | -3.49 | 0.232 | 55.9 °C | 55.3 °C
2 | MRVAAATAAAGAGPAMAVWTRATKAGLVELLLRERWVRVVAELSGESLSLTGDAAAAELEPALGPAAAAFNGLPNGGGAGDSLPGSPSRGLGPPSPPAPPRGPAGEAGASPPVRRVRVVKQEAGGLGISIKGGRENRMPILISKIFPGLAADQSRALRLGDAILSVNGTDLRQATHDQAVQALKRAGKEVLLEVKFIREVTPYIKKPSLVSDLPWEGAAPQSPSFSGSEDSGSPKHQNSTKDRKIIPLKMCFAARNLSMPDLENRLIELHSPDSRNTLILRCKDTATAHSWFVAIHTNIMALLPQVLAELNAMLGATSTAGGSKEVKHIAWLAEQAKLDGGRQQWRPVLMAVTEKDLLLYDCMPWTRDAWASPCHSYPLVATRLVHSGSGCRSPSLGSDLTFATRTGSRQGIEMHLFRVETHRDLSSWTRILVQGCHAAAELIKEVSLGCMLNGQEVRLTIHYENGFTISRENGGSSSILYRYPFERLKMSADDGIRNLYLDFGGPEGELTMDLHSCPKPIVFVLHTFLSAKVTRMGLLV [SNTB2] | 0.0092 | 0.506 | 0.99 | -0.0262 | 49.4 °C | 50.3 °C
3 | MAASPGPAGVGGAGAVYGSGSSGFALDSGLEIKTRSVEQTLLPLVSQITTLINHKDNTKKSDKTLQAIQRVGQAVNLAVGRFVKVGEAIANENWDLKEEINIACIEAKQAGETIAALTDITNLNHLESDGQITIFTDKTGVIKAARLLLSSVTKVLLLADRVVIKQIITSRNKVLATMERLEKVNSFQEFVQIFSQFGNEMVEFAHLSGDRQNDLKDEKKKAKMAAARAVLEKCTMMLLTASKTCLRHPNCESAHKNKEGVFDRMKVALDKVIEIVTDCKPNGETDISSISIFTGIKEFKMNIEALRENLYFQSKENLSVTLEVILERMEDFTDSAYTSHEHRERILELSTQARMELQQLISVWIQAQSKKTKSIAEELELSILKISHSLNELKKELHSTATQLAADLLKYHADHVVLKALKLTGVEGNLEALAEYACKLSEQKEQLVETCRLLRHISGTEPLEITCIHAEETFQVTGQQIISAAETLTLHPSSKIAKENLDVFCEAWESQISDMSTLLREINDVFEGRRGEKYGYLSLPKPMKNNANLKSLKPDKPDSEEQAKIAKLGLKLGLLTSDADCEIEKWEDQENEIVQYGRNMSSMAYSLYLFTRGEGPLKTSQDLIHQLEVFAAEGLKLTSSVQAFSKQLKDDDKLMLLLEINKLIPLCHQLQTVTKTSLQNKVFLKVDKCITKTRSMMALLVQLLSLCYKLLKKLQMENNGWVSVTNKDTMDSKT [CTNNAL1] | -0.111 | 0.258 | 1.63 | 0.208 | 47.7 °C | 48.9 °C
4 | MESEQLFHRGYYRNSYNSITSASSDEELLDGAGVIMDFQTSEDDNLLDGDTAVGTHYTMTNGGSINSSTHLLDLLDEPIPGVGTYDDFHTIDWVREKCKDRERHRRINSKKKESAWEMTKSLYDAWSGWLVVTLTGLASGALAGLIDIAADWMTDLKEGICLSALWYNHEQCCWGSNETTFEERDKCPQWKTWAELIIGQAEGPGSYIMNYIMYIFWALSFAFLAVSLVKVFAPYACGSGIPEIKTILSGFIIRGYLGKWTLMIKTITLVLAVASGLSLGKEGPLVHVACCCGNIFSYLFPKYSTNEAKKREVLSAASAAGVSVAFGAPIGGVLFSLEEVSYYFPLKTLWRSFFAALVAAFVLRSINPFGNSRLVLFYVEYHTPWYLFELFPFILLGVFGGLWGAFFIRANIAWCRRRKSTKFGKYPVLEVIIVAAITAVIAFPNPYTRLNTSELIKELFTDCGPLESSSLCDYRNDMNASKIVDDIPDRPAGIGVYSAIWQLCLALIFKIIMTVFTFGIKVPSGLFIPSMAIGAIAGRIVGIAVEQLAYYHHDWFIFKEWCEVGADCITPGLYAMVGAAACLGGVTRMTVSLVVIVFELTGGLEYIVPLMAAVMTSKWVGDAFGREGIYEAHIRLNGYPFLDAKEEFTHTTLAADVMRPRRNDPPLAVLTQDNMTVDDIENMINETSYNGFPVIMSKESQRLVGFALRRDLTIAIESARKKQEGIVGSSRVCFAQHTPSLPAESPRPLKLRSILDMSPFTVTDHTPMEIVVDIFRKLGLRQCLVTHNGRLLGIITKKDILRHMAQTANQDPASIMFN [CLCN3] | -0.0871 | -0.456 | -0.317 | -0.354 | 54.9 °C | 54.9 °C
5 | METGAAELYDQALLGILQHVGNVQDFLRVLFGFLYRKTDFYRLLRHPSDRMGFPPGAAQALVLQVFKTFDHMARQDDEKRRQELEEKIRRKEEEEAKTVSAAAAEKEPVPVPVQEIEIDSTTELDGHQEVEKVQPPGPVKEMAHGSQEAEAPGAVAGAAEVPREPPILPRIQEQFQKNPDSYNGAVRENYTWSQDYTDLEVRVPVPKHVVKGKQVSVALSSSSIRVAMLEENGERVLMEGKLTHKINTESSLWSLEPGKCVLVNLSKVGEYWWNAILEGEEPIDIDKINKERSMATVDEEEQAVLDRLTFDYHQKLQGKPQSHELKVHEMLKKGWDAEGSPFRGQRFDPAMFNISPGAVQF [NUDCD3] | -0.097 | 0.442 | 0.3 | 0.212 | 51 °C | 50.9 °C
6 | MKVVNLKQAILQAWKERWSDYQWAINMKKFFPKGATWDILNLADALLEQAMIGPSPNPLILSYLKYAISSQMVSYSSVLTAISKFDDFSRDLCVQALLDIMDMFCDRLSCHGKAEECIGLCRALLSALHWLLRCTAASAERLREGLEAGTPAAGEKQLAMCLQRLEKTLSSTKNRALLHIAKLEEASSWTAIEHSLLKLGEILANLSNPQLRSQAEQCGTLIRSIPTMLSVHAEQMHKTGFPTVHAVILLEGTMNLTGETQSLVEQLTMVKRMQHIPTPLFVLEIWKACFVGLIESPEGTEELKWTAFTFLKIPQVLVKLKKYSHGDKDFTEDVNCAFEFLLKLTPLLDKADQRCNCDCTNFLLQECGKQGLLSEASVNNLMAKRKADREHAPQQKSGENANIQPNIQLILRAEPTVTNILKTMDADHSKSPEGLLGVLGHMLSGKSLDLLLAAAAATGKLKSFARKFINLNEFTTYGSEESTKPASVRALLFDISFLMLCHVAQTYGSEVILSESRTGAEVPFFETWMQTCMPEEGKILNPDHPCFRPDSTKVESLVALLNNSSEMKLVQMKWHEACLSISAAILEILNAWENGVLAFESIQKITDNIKGKVCSLAVCAVAWLVAHVRMLGLDEREKSLQMIRQLAGPLFSENTLQFYNERVVIMNSILERMCADVLQQTATQIKFPSTGVDTMPYWNLLPPKRPIKEVLTDIFAKVLEKGWVDSRSIHIFDTLLHMGGVYWFCNNLIKELLKETRKEHTLRAVELLYSIFCLDMQQVTLVLLGHILPGLLTDSSKWHSLMDPPGTALAKLAVWCALSSYSSHKGQASTRQKKRHREDIEDYISLFPLDDVQPSKLMRLLSSNEDDANILSSPTDRSMSSSLSASQLHTVNMRDPLNRVLANLFLLISSILGSRTAGPHTQFVQWFMEECVDCLEQGGRGSVLQFMPFTTVSELVKVSAMSSPKVVLAITDLSLPLGRQVAAKAIAAL [MED24] | 0.0385 | 1.11 | 1.86 | -0.322 | 50.8 °C | 52.2 °C
7 | MASGRDERPPWRLGRLLLLMCLLLLGSSARAAHIKKAEATTTTTSAGAEAAEGQFDRYYHEEELESALREAAAAGLPGLARLFSIGRSVEGRPLWVLRLTAGLGSLIPEGDAGPDAAGPDAAGPLLPGRPQVKLVGNMHGDETVSRQVLIYLARELAAGYRRGDPRLVRLLNTTDVYLLPSLNPDGFERAREGDCGFGDGGPSGASGRDNSRGRDLNRSFPDQFSTGEPPALDEVPEVRALIEWIRRNKFVLSGNLHGGSVVASYPFDDSPEHKATGIYSKTSDDEVFKYLAKAYASNHPIMKTGEPHCPGDEDETFKDGITNGAHWYDVEGGMQDYNYVWANCFEITLELSCCKYPPASQLRQEWENNRESLITLIEKVHIGVKGFVKDSITGSGLENATISVAGINHNITTGRFGDFYRLLVPGTYNLTVVLTGYMPLTVTNVVVKEGPATEVDFSLRPTVTSVIPDTTEAVSTASTVAIPNILSGTSSSYQPIQPKDFHHHHFPDMEIFLRRFANEYPNITRLYSLGKSVESRELYVMEISDNPGVHEPGEPEFKYIGNMHGNEVVGRELLLNLIEYLCKNFGTDPEVTDLVHNTRIHLMPSMNPDGYEKSQEGDSISVIGRNNSNNFDLNRNFPDQFVQITDPTQPETIAVMSWMKSYPFVLSANLHGGSLVVNYPFDDDEQGLATYSKSPDDAVFQQIALSYSKENSQMFQGRPCKNMYPNEYFPHGITNGASWYNVPGGMQDWNYLQTNCFEVTIELGCVKYPLEKELPNFWEQNRRSLIQFMKQVHQGVRGFVLDATDGRGILNATISVAEINHPVTTYKTGDYWRLLVPGTYKITASARGYNPVTKNVTVKSEGAIQVNFTLVRSSTDSNNESKKGKGASSSTNDASDPTTKEFETLIKDLSAENGLESLMLRSSSNLALALYRYHSYKDLSEFLRGLVMNYPHITNLTNLGQSTEYRHIWSLEISNKPNVSEPEEPKIRFVAGIHGNAPVGTELLLALAEFLCLNYKKNPAVTQLVDRTRIVIVPSLNPDGRERAQEKDCTSKIGQTNARGKDLDTDFTNNASQPETKAIIENLIQKQDFSLSVALDGGSMLVTYPYDKPVQTVENKETLKHLASLYANNHPSMHMGQPSCPNKSDENIPGGVMRGAEWHSHLGSMKDYSVTYGHCPEITVYTSCCYFPSAARLPSLWADNKRSLLSMLVEVHKGVHGFVKDKTGKPISKAVIVLNEGIKVQTKEGGYFHVLLAPGVHNIIAIADGYQQQHSQVFVHHDAASSVVIVFDTDNRIFGLPRELVVTVSGATMSALILTACIIWCICSIKSNRHKDGFHRLRQHHDEYEDEIRMMSTGSKKSLLSHEFQDETDTEEETLYSSKH [CPD] | -0.0862 | -2.91 | -3.88 | 0.211 | 55.5 °C | 53.8 °C
8 | MSEVKSRKKSGPKGAPAAEPGKRSEGGKTPVARSSGGGGWADPRTCLSLLSLGTCLGLAWFVFQQSEKFAKVENQYQLLKLETNEFQQLQSKISLISEKWQKSEAIMEQLKSFQIIAHLKRLQEEINEVKTWSNRITEKQDILNNSLTTLSQDITKVDQSTTSMAKDVGLKITSVKTDIRRISGLVTDVISLTDSVQELENKIEKVEKNTVKNIGDLLSSSIDRTATLRKTASENSQRINSVKKTLTELKSDFDKHTDRFLSLEGDRAKVLKTVTFANDLKPKVYNLKKDFSRLEPLVNDLTLRIGRLVTDLLQREKEIAFLSEKISNLTIVQAEIKDIKDEIAHISDMN [IKBIP] | 0.165 | 2.64 | 4.37 | 0.751 | 54.1 °C | 55.2 °C
9 | ARHGAP35 | -0.124 | 1.69 | 3.46 | -0.0977 | 48.6 °C | 49.4 °C

From the supplement of paper PMC5998384
